Data on three molecules can be found in paper PMC10156792, “The structure and evolutionary diversity of the fungal E3-binding protein” (Communications Biology, 2023).

Data set [1] addresses N.crassa E3-binding protein in the native pyruvate dehydrogenase complex (N.crassa). The data set is described as follows: cryo-EM structure; native PDC data EMPIAR-10489 reprocessed; symmetry-expanded consensus alignments only, C3 symmetry, 4.1 Å.
Data set [2] deals with the molecule itself. The data set is described as follows: cryo-EM structure; recombinant co-expressed CTD:CBD sub-complex (tE2/PX261); symmetry expansion, signal subtraction and classification of E2 trimers, C3 symmetry, 3.2 Å.

A word on the stoichiometry N: it is the number of molecules, sites or subunits per partner or assembly. In turn, “N.crassa E3-binding protein in the native pyruvate dehydrogenase complex (natural protein)” yielded a stoichiometry N in data set [1] of 3.

B1: N.crassa E2 C-terminal catalytic transacetylase domain (residues 225-458) (domain or fragment, UniProt P20285 225-458, looked up)
chain: AAYTDVPISGMRKTIAARLKESVTENPHFFVSTNLSVSKLLKLRQALNSSADGRYKLSVNDFLIKAMGIASKRVPTVNSSWRDGVIRQFETVDVSVAVATPNGLITPIVKGVEGKGLESISAAVKELAKKARDGKLKPEEYQGGSISISNMGMNPAVQSFTAIINPPQAAILAVGAPQKVAVPVENEDGTTGVSWDEQIIVTASFDHKVVDGAVGAEWIRELKKVIENPLELLL
notes: Forms trimers that assemble into the icosahedral PDC core; also called E2 CTD; CTD; source: E. coli Rosetta2 (DE3), co-expressed with his-tagged E3BP 261-426 from the petDuet vector, purified (Ni-NTA, SEC)
In the case of B1, in data set [2], the binding result was “binds”.

B2: N.crassa E3-binding protein core-binding domain (residues 261-426), his-tagged (domain or fragment, UniProt Q7RWS2 261-426, looked up)
chain: PAPPPVAVVTAPISLSAAIDVQNKLHKTIGVFLPLSTFITRATEIANQKLPLPANYQPTADELFNQVLGLDKVTRKESRGSYTPTFGSFVAPQRAARKADIIDILAAPSTRVAASAQSKSAAPGLTTSGPNVFSLQVPKSEEKRAQAFLQKMKLVLEQEPDKLVRA
notes: residues 265-346 and 390-425 were built; Trimer inside the E2 core by the cryo-EM reconstruction; also called E3BP CBD; CBD; source: E. coli Rosetta2 (DE3), co-expressed with E2 225-458 from the petDuet vector, purified (Ni-NTA, SEC)
Take B2: the “stoichiometry N” value in data set [2] came out at 3.
